# Data reported in patent publication US20210130436A1 (published 2021).
# How the values were obtained:
# human PD-L1 [1] = biological target: T1, human PD-L1 (human, UniProt Q9NZQ7 19-290); experiment: flow cytometry on CHO cells stably expressing PD-L1
# T1 construct: also called huPD-L1; CD274
# T1 sequence (Q9NZQ7 19-290): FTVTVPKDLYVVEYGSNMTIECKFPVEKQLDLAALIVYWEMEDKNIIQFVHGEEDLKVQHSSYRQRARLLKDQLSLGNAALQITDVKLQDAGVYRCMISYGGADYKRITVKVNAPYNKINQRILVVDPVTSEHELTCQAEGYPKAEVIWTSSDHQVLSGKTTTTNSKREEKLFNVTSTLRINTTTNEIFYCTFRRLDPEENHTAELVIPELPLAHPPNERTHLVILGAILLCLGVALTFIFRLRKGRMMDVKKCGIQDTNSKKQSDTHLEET
# human CD28 = biological target: T2, human CD28 (human, UniProt P10747 19-220); experiment: flow cytometry, Jurkat/IL2 reporter cells (endogenous CD28), 33.3 nM, PE anti-human Fc
# T2 construct: whole, on cells; Endogenous CD28 of Jurkat/IL2 reporter cells
# [2] = biological target: T3, human CD28, endogenously expressed on Jurkat/IL2 reporter cells (human, UniProt P10747 19-220); experiment: flow cytometry, Jurkat/IL2 reporter cells (endogenous CD28), 33.3 nM Fc fusion, PE anti-human Fc
# T3 construct: This is the endogenous CD28 of Jurkat cells
# [3] = biological target: T4, human CTLA-4 (CTLA4), full-length, expressed on the surface of CHO cells (human, UniProt P16410 36-223); experiment: flow cytometry, CHO cells stably expressing human CTLA-4, 33.3 nM Fc fusion, PE anti-human Fc
# T4 construct: also called huCTLA4
# T4 sequence (P16410 36-223): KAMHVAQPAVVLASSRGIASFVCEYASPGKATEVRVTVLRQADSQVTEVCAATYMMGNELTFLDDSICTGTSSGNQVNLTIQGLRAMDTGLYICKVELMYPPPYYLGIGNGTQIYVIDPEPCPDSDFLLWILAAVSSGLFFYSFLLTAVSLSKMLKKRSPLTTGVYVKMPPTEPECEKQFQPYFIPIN
# [4] = biological target: T5, human PD-L1 (huPD-L1), full-length, stably expressed on CHO cells (human, UniProt Q9NZQ7 19-290); experiment: flow cytometry, CHO cells expressing huPD-L1
# T5 construct: whole, on cells
# T5 sequence (Q9NZQ7 19-290): as the sequence (Q9NZQ7 19-290) above
# [5] = biological target: T5, human PD-L1 (huPD-L1), full-length, …; experiment: flow cytometry, CHO cells expressing huPD-L1; MFI against WT CD80 of the table
# [6] = biological target: T6, human CTLA4 (huCTLA4), full-length, stably expressed on CHO cells (human, UniProt P16410 36-223); experiment: flow cytometry, CHO cells expressing huCTLA4; MFI against WT CD80 of the table
# T6 construct: whole, on cells
# T6 sequence (P16410 36-223): as the sequence (P16410 36-223) above
# [7] = biological target: T5, human PD-L1 (huPD-L1), full-length, …; experiment: flow cytometry; MFI on PD-L1 CHO cells over MFI on Jurkat cells (CD28)
# [8] = biological target: T6, human CTLA4 (huCTLA4), full-length, …; experiment: flow cytometry, CHO cells expressing huCTLA4
# [9] = biological target: T4, human CTLA-4 (CTLA4), full-length, …; experiment: flow cytometry on CTLA-4 CHO cells; MFI against WT CD80 ECD-Fc (R&D)
# [10] = biological target: T3, human CD28, endogenously expressed on …; experiment: flow cytometry on Jurkat cells (CD28); MFI against WT CD80 ECD-Fc (R&D)
# [11] = biological target: T7, human PD-L1 (CD274), full-length, expressed on the surface of CHO cells (human, UniProt Q9NZQ7 19-290); experiment: flow cytometry on PD-L1 CHO cells; MFI against WT CD80 ECD-Fc (R&D)
# T7 construct: also called huPD-L1; B7-H1
# T7 sequence (Q9NZQ7 19-290): as the sequence (Q9NZQ7 19-290) above
# [12] = biological target: T7, human PD-L1 (CD274), full-length, …; experiment: flow cytometry, CHO cells stably expressing human PD-L1, 33.3 nM Fc fusion, PE anti-human Fc
# [13] = biological target: T7, human PD-L1 (CD274), full-length, …; experiment: flow cytometry; MFI on PD-L1 CHO cells over MFI on Jurkat cells (CD28)
# human PD-L1 [14] = biological target: T8, human PD-L1 (human, UniProt Q9NZQ7 19-290); experiment: flow cytometry, CHO cells stably expressing huPD-L1, 33.3 nM, PE anti-human Fc
# T8 construct: whole, on cells; also called huPD-L1
# T8 sequence (Q9NZQ7 19-290): as above
Binder,MFI at 33.3 nM [2] [MFI],MFI at 33.3 nM [3] [MFI],MFI at 33.3 nM [4] [MFI],Fold change to WT CD80 [5] [fold],Ratio of PDL1:CD28 [7] [ratio],Fold change to WT CD80 [9] [fold],Fold change to WT [10] [fold],Fold change to WT [11] [fold],MFI at 33.3 nM [12] [MFI],Ratio of PDL1:CD28 [13] [ratio],also measured
"CD80 E35D/M47V/N48K/V68M/K89N IgV-Fc, GS(G4S)5 linker (Fc fusion, not shown: a dimerising Fc or GST) VIHVTKEVKEVATLSCGHNVSVEELAQTRIYWQKDKKMVLTMMSGDVKIWPEYKNRTIFDITNNLSIMILALRPSDEGTYECVVLKYENDAFKREHLAEVTLSVKADGSGGGGSGGGGSGGGGSGGGGSGGGGS",,,,,,,,,,,MFI at 33.3 nM (human PD-L1 [1]): 22700 MFI
"A26E/Q27R/E35D/M47L/N48Y/L85Q CD80 IgV-Fc (Fc fusion, not shown: a dimerising Fc or GST) VIHVTKEVKEVATLSCGHNVSVEELERTRIYWQKDKKMVLTMMSGDLYIWPEYKNRTIFDITNNLSIVILALRPSDEGTYECVVQKYEKDAFKREHLAEVTLSVKAD",,,,,,,,,,,MFI at 33.3 nM (human CD28): 78 MFI
"variant CD80 IgV-Fc E35D/M47L/A71G/L97Q (Fc fusion, not shown: a dimerising Fc or GST) VIHVTKEVKEVATLSCGHNVSVEELAQTRIYWQKDKKMVLTMMSGDLNIWPEYKNRTIFDITNNLSIVILGLRPSDEGTYECVVLKYEKDAFKREHQAEVTLSVKAD",300,226000,,,,,,,,,
"variant CD80 IgV-Fc Q33R/E35D/M38I/M47L/V68M (Fc fusion, not shown: small tags and cut ends; a dimerising Fc or GST) VIHVTKEVKEVATLSCGHNVSVEELAQTRIYWRKDKKIVLTMMSGDLNIWPEYKNRTIFDITNNLSIMILALRPSDEGTYECVVLKYEKDAFKREHLAEVTLSVKAD",,,16500,320,1110,,,,,,Fold change to WT CD80 [6]: 0.1 fold; MFI at 33.3 nM [8]: 107 MFI
"variant CD80 IgV-Fc E35D/M47V/T62A/A71G/V83A/Y87H/L97M (Fc fusion, not shown: a dimerising Fc or GST) VIHVTKEVKEVATLSCGHNVSVEELAQTRIYWQKDKKMVLTMMSGDVNIWPEYKNRTIFDIANNLSIVILGLRPSDEGTYECAVLKHEKDAFKREHMAEVTLSVKAD",305,18100,,,,0.1,0.04,9.76,77500,255,
"H18Y/E35D/M47I/V68M/A71G/R94L CD80 IgV-Fc (Fc fusion, not shown: a dimerising Fc or GST) VIHVTKEVKEVATLSCGYNVSVEELAQTRIYWQKDKKMVLTMMSGDINIWPEYKNRTIFDITNNLSIMILGLRPSDEGTYECVVLKYEKDAFKLEHLAEVTLSVKAD",,,,,,,,,,,MFI at 33.3 nM (human PD-L1 [14]): 14500 MFI; MFI at 33.3 nM (human CD28): 1900 MFI
"variant CD80 IgV-Fc H18Y/E35D/M38I/M47L/V68M/L85M (Fc fusion, not shown: small tags and cut ends; a dimerising Fc or GST) VIHVTKEVKEVATLSCGYNVSVEELAQTRIYWQKDKKIVLTMMSGDLNIWPEYKNRTIFDITNNLSIMILALRPSDEGTYECVVMKYEKDAFKREHLAEVTLSVKAD",,,3590,69.7,215,,,,,,
"variant CD80 IgV-Fc E35D/M47L/V68M/E95V/L97Q (Fc fusion, not shown: small tags and cut ends; a dimerising Fc or GST) VIHVTKEVKEVATLSCGHNVSVEELAQTRIYWQKDKKMVLTMMSGDLNIWPEYKNRTIFDITNNLSIMILALRPSDEGTYECVVLKYEKDAFKRVHQAEVTLSVKAD",,,18600,361,1300,,,,,,Fold change to WT CD80 [6]: 8.5 fold; MFI at 33.3 nM [8]: 15000 MFI
"variant CD80 IgV-Fc H18Y/E35D/V68M/L97Q (Fc fusion, not shown: a dimerising Fc or GST) VIHVTKEVKEVATLSCGYNVSVEELAQTRIYWQKDKKMVLTMMSGDMNIWPEYKNRTIFDITNNLSIMILALRPSDEGTYECVVLKYEKDAFKREHQAEVTLSVKAD",299,173000,,,,0.97,0.04,15.3,122000,407,
"variant CD80 IgV-Fc E35D/D46E/M47V/L97Q (Fc fusion, not shown: a dimerising Fc or GST) VIHVTKEVKEVATLSCGHNVSVEELAQTRIYWQKDKKMVLTMMSGEVNIWPEYKNRTIFDITNNLSIVILALRPSDEGTYECVVLKYEKDAFKREHQAEVTLSVKAD",371,305000,,,,1.71,0.05,2.45,19500,52,
"variant CD80 IgV-Fc E35D/M47V/A71G/L85M/L97Q (Fc fusion, not shown: a dimerising Fc or GST) VIHVTKEVKEVATLSCGHNVSVEELAQTRIYWQKDKKMVLTMMSGDVNIWPEYKNRTIFDITNNLSIVILGLRPSDEGTYECVVMKYEKDAFKREHQAEVTLSVKAD",339,239000,,,,1.34,0.04,7.77,61700,182,
"WT CD80 ECD-Fc (Fc fusion, not shown: a dimerising Fc or GST, The label 'H22.6' is not explained; also called WT CD80 ECD-Fc H22.6) VIHVTKEVKEVATLSCGHNVSVEELAQTRIYWQKEKKMVLTMMSGDMNIWPEYKNRTIFDITNNLSIVILALRPSDEGTYECVVLKYEKDAFKREHLAEVTLSVKADFPTPSISDFEIPTSNIRRIICSTSGGFPEPHLSWLENGEELNAINTTVSQDPETELYAVSSKLDFNMTTNHSFMCLIKYGHLRVNQTFNWNTTKQEHFPDN",,,,,,,,,,,MFI at 33.3 nM (human CD28): 30 MFI

# Now from value to binder, other results behind:
MFI at 33.3 nM [2] [MFI],MFI at 33.3 nM [3] [MFI],MFI at 33.3 nM [4] [MFI],Fold change to WT CD80 [5] [fold],Ratio of PDL1:CD28 [7] [ratio],Fold change to WT CD80 [9] [fold],Fold change to WT [10] [fold],Fold change to WT [11] [fold],MFI at 33.3 nM [12] [MFI],Ratio of PDL1:CD28 [13] [ratio],Binder,also measured
284,14000,,,,0.08,0.04,9.82,78000,275,"variant CD80 IgV-Fc Q33L/E35D/M43V/M47I/A71G (Fc fusion, not shown: a dimerising Fc or GST) VIHVTKEVKEVATLSCGHNVSVEELAQTRIYWLKDKKMVLTMVSGDINIWPEYKNRTIFDITNNLSIVILGLRPSDEGTYECVVLKYEKDAFKREHLAEVTLSVKAD",
,,18600,362,1270,,,,,,"variant CD80 IgV-Fc E24D/E35D/M47L/V68M/E95V/L97Q (Fc fusion, not shown: small tags and cut ends; a dimerising Fc or GST) VIHVTKEVKEVATLSCGHNVSVEDLAQTRIYWQKDKKMVLTMMSGDLNIWPEYKNRTIFDITNNLSIMILALRPSDEGTYECVVLKYEKDAFKRVHQAEVTLSVKAD",Fold change to WT CD80 [6]: 8.8 fold; MFI at 33.3 nM [8]: 15500 MFI
268,3840,,,,0.02,0.04,9.61,76400,285,"variant CD80 IgV-Fc H18Y/Y31H/E35D/M47V/A71G/L85Q (Fc fusion, not shown: a dimerising Fc or GST) VIHVTKEVKEVATLSCGYNVSVEELAQTRIHWQKDKKMVLTMMSGDVNIWPEYKNRTIFDITNNLSIVILGLRPSDEGTYECVVQKYEKDAFKREHLAEVTLSVKAD",
,,16500,320,1130,,,,,,"variant CD80 IgV-Fc Q27L/Q33L/E35D/T41S/M47V/N48K/V68M/L85M (Fc fusion, not shown: small tags and cut ends; a dimerising Fc or GST) VIHVTKEVKEVATLSCGHNVSVEELALTRIYWLKDKKMVLSMMSGDVKIWPEYKNRTIFDITNNLSIMILALRPSDEGTYECVVMKYEKDAFKREHLAEVTLSVKAD",Fold change to WT CD80 [6]: 0.1 fold; MFI at 33.3 nM [8]: 178 MFI
272,1080,,,,0.01,0.04,3.65,29000,107,"variant CD80 IgV-Fc Q33L/E35D/M43I/L85Q/R94W (Fc fusion, not shown: a dimerising Fc or GST) VIHVTKEVKEVATLSCGHNVSVEELAQTRIYWLKDKKMVLTMISGDMNIWPEYKNRTIFDITNNLSIVILALRPSDEGTYECVVQKYEKDAFKWEHLAEVTLSVKAD",
,,4620,89.7,325,,,,,,"variant CD80 IgV-Fc E35D/D46E/M47L/V68M/T79M/L85M/L97Q (Fc fusion, not shown: small tags and cut ends; a dimerising Fc or GST) VIHVTKEVKEVATLSCGHNVSVEELAQTRIYWQKDKKMVLTMMSGELNIWPEYKNRTIFDITNNLSIMILALRPSDEGMYECVVMKYEKDAFKREHQAEVTLSVKAD",Fold change to WT CD80 [6]: 0.1 fold; MFI at 33.3 nM [8]: 96 MFI
